{"source": "the MegaScale stability set (Tsuboyama et al. 2023)", "parents": {"B1": {"name": "EEHEE_rd4_0647 (parent)", "chain": "MQVTWGNVTVTFSNPEEAKKYAEKVARKLGGQVELHNGQFRIK"}}}
{"variants_of": "B1", "experiment": "folding stability dG (cDNA display proteolysis); higher = more stable", "settings": "PBS, room temperature", "units": {"folding stability dG": "kJ/mol"}}
{"variant": "MQVTWGNQTVTFSNPEEAKKYAEKVARKLGGQVELHNGQFRIK", "note": "[V8Q]", "folding stability dG": 9.84}
{"variant": "MQVTWGNTTVTFSNPEEAKKYAEKVARKLGGQVELHNGQFRIK", "note": "[V8T]", "folding stability dG": 11}
{"variant": "MQVTWGNLTVTFSNPEEAKKYAEKVARKLGGQVELHNGQFRIK", "note": "[V8L]", "folding stability dG": 10.3}
{"variant": "MQVTWGNDTVTFSNPEEAKKYAEKVARKLGGQVELHNGQFRIK", "note": "[V8D]", "folding stability dG": 5.56}
{"variant": "MQVTWGNMTVTFSNPEEAKKYAEKVARKLGGQVELHNGQFRIK", "note": "[V8M]", "folding stability dG": 11.2}
{"variant": "MQVTWGNITVTFSNPEEAKKYAEKVARKLGGQVELHNGQFRIK", "note": "[V8I]", "folding stability dG": 12.4}
{"variant": "MQVTWGNNTVTFSNPEEAKKYAEKVARKLGGQVELHNGQFRIK", "note": "[V8N]", "folding stability dG": 10.5}
{"variant": "MQVTWGNATVTFSNPEEAKKYAEKVARKLGGQVELHNGQFRIK", "note": "[V8A]", "folding stability dG": 7.9}
{"variant": "MQVTWGNYTVTFSNPEEAKKYAEKVARKLGGQVELHNGQFRIK", "note": "[V8Y]", "folding stability dG": 11.9}
{"variant": "MQVTWGNHTVTFSNPEEAKKYAEKVARKLGGQVELHNGQFRIK", "note": "[V8H]", "folding stability dG": 11.7}
{"variant": "MQVTWGNWTVTFSNPEEAKKYAEKVARKLGGQVELHNGQFRIK", "note": "[V8W]", "folding stability dG": 11.7}
{"variant": "MQVTWGNFTVTFSNPEEAKKYAEKVARKLGGQVELHNGQFRIK", "note": "[V8F]", "folding stability dG": 11.8}
{"variant": "MQVTWGNVGVTFSNPEEAKKYAEKVARKLGGQVELHNGQFRIK", "note": "[T9G]", "folding stability dG": 3.95}
{"variant": "MQVTWGNVAVTFSNPEEAKKYAEKVARKLGGQVELHNGQFRIK", "note": "[T9A]", "folding stability dG": 7.76}
{"variant": "MQVTWGNVWVTFSNPEEAKKYAEKVARKLGGQVELHNGQFRIK", "note": "[T9W]", "folding stability dG": 7.46}
{"variant": "MQVTWGNVSVTFSNPEEAKKYAEKVARKLGGQVELHNGQFRIK", "note": "[T9S]", "folding stability dG": 9.45}
{"variant": "MQVTWGNVDVTFSNPEEAKKYAEKVARKLGGQVELHNGQFRIK", "note": "[T9D]", "folding stability dG": 3.73}
{"variant": "MQVTWGNVVVTFSNPEEAKKYAEKVARKLGGQVELHNGQFRIK", "note": "[T9V]", "folding stability dG": 11.9}
{"variant": "MQVTWGNVIVTFSNPEEAKKYAEKVARKLGGQVELHNGQFRIK", "note": "[T9I]", "folding stability dG": 11.3}
{"variant": "MQVTWGNVLVTFSNPEEAKKYAEKVARKLGGQVELHNGQFRIK", "note": "[T9L]", "folding stability dG": 9.29}
{"variant": "MQVTWGNVQVTFSNPEEAKKYAEKVARKLGGQVELHNGQFRIK", "note": "[T9Q]", "folding stability dG": 7.69}
{"variant": "MQVTWGNVMVTFSNPEEAKKYAEKVARKLGGQVELHNGQFRIK", "note": "[T9M]", "folding stability dG": 8.98}
{"variant": "MQVTWGNVKVTFSNPEEAKKYAEKVARKLGGQVELHNGQFRIK", "note": "[T9K]", "folding stability dG": 8.44}
{"variant": "MQVTWGNVFVTFSNPEEAKKYAEKVARKLGGQVELHNGQFRIK", "note": "[T9F]", "folding stability dG": 8.16}
{"variant": "MQVTWGNVCVTFSNPEEAKKYAEKVARKLGGQVELHNGQFRIK", "note": "[T9C]", "folding stability dG": 13.4}
{"variant": "MQVTWGNVNVTFSNPEEAKKYAEKVARKLGGQVELHNGQFRIK", "note": "[T9N]", "folding stability dG": 6.79}
{"variant": "MQVTWGNVYVTFSNPEEAKKYAEKVARKLGGQVELHNGQFRIK", "note": "[T9Y]", "folding stability dG": 7.76}
{"variant": "MQVTWGNVRVTFSNPEEAKKYAEKVARKLGGQVELHNGQFRIK", "note": "[T9R]", "folding stability dG": 8.6}
{"variant": "MQVTWGNVEVTFSNPEEAKKYAEKVARKLGGQVELHNGQFRIK", "note": "[T9E]", "folding stability dG": 6.09}
{"variant": "MQVTWGNVPVTFSNPEEAKKYAEKVARKLGGQVELHNGQFRIK", "note": "[T9P]", "folding stability dG": 1.77}
{"variant": "MQVTWGNVHVTFSNPEEAKKYAEKVARKLGGQVELHNGQFRIK", "note": "[T9H]", "folding stability dG": 7.41}
{"variant": "MQVSWGNVTVTFSNPEEAKKYAEKVARKLGGQVELHNGQFRIK", "note": "[T4S]", "folding stability dG": 11.8}
{"variant": "MQVNWGNVTVTFSNPEEAKKYAEKVARKLGGQVELHNGQFRIK", "note": "[T4N]", "folding stability dG": 9.12}
{"variant": "MQVRWGNVTVTFSNPEEAKKYAEKVARKLGGQVELHNGQFRIK", "note": "[T4R]", "folding stability dG": 11.5}
{"variant": "MQVPWGNVTVTFSNPEEAKKYAEKVARKLGGQVELHNGQFRIK", "note": "[T4P]", "folding stability dG": 1.87}
{"variant": "MQVQWGNVTVTFSNPEEAKKYAEKVARKLGGQVELHNGQFRIK", "note": "[T4Q]", "folding stability dG": 10.4}
{"variant": "MQVMWGNVTVTFSNPEEAKKYAEKVARKLGGQVELHNGQFRIK", "note": "[T4M]", "folding stability dG": 10.8}
{"variant": "MQVVWGNVTVTFSNPEEAKKYAEKVARKLGGQVELHNGQFRIK", "note": "[T4V]", "folding stability dG": 13.2}
{"variant": "MQVYWGNVTVTFSNPEEAKKYAEKVARKLGGQVELHNGQFRIK", "note": "[T4Y]", "folding stability dG": 9.23}
{"variant": "MQVWWGNVTVTFSNPEEAKKYAEKVARKLGGQVELHNGQFRIK", "note": "[T4W]", "folding stability dG": 8.82}
{"variant": "MQVTWGVVTVTFSNPEEAKKYAEKVARKLGGQVELHNGQFRIK", "note": "[N7V]", "folding stability dG": 9.74}
{"variant": "MQVTWGCVTVTFSNPEEAKKYAEKVARKLGGQVELHNGQFRIK", "note": "[N7C]", "folding stability dG": 15.3}
{"variant": "MQVTWGAVTVTFSNPEEAKKYAEKVARKLGGQVELHNGQFRIK", "note": "[N7A]", "folding stability dG": 10}
{"variant": "MQVTWGFVTVTFSNPEEAKKYAEKVARKLGGQVELHNGQFRIK", "note": "[N7F]", "folding stability dG": 10.2}
{"variant": "MQVTWGGVTVTFSNPEEAKKYAEKVARKLGGQVELHNGQFRIK", "note": "[N7G]", "folding stability dG": 10.8}
{"variant": "MQVTWGRVTVTFSNPEEAKKYAEKVARKLGGQVELHNGQFRIK", "note": "[N7R]", "folding stability dG": 11}
{"variant": "MQVTWGKVTVTFSNPEEAKKYAEKVARKLGGQVELHNGQFRIK", "note": "[N7K]", "folding stability dG": 11.4}
{"variant": "MQVTWGIVTVTFSNPEEAKKYAEKVARKLGGQVELHNGQFRIK", "note": "[N7I]", "folding stability dG": 9.64}
{"variant": "MQVTWGWVTVTFSNPEEAKKYAEKVARKLGGQVELHNGQFRIK", "note": "[N7W]", "folding stability dG": 10.2}
{"variant": "MQVTWGHVTVTFSNPEEAKKYAEKVARKLGGQVELHNGQFRIK", "note": "[N7H]", "folding stability dG": 11}
{"variant": "MQVTWGPVTVTFSNPEEAKKYAEKVARKLGGQVELHNGQFRIK", "note": "[N7P]", "folding stability dG": 9.58}
{"variant": "MQVTWGQVTVTFSNPEEAKKYAEKVARKLGGQVELHNGQFRIK", "note": "[N7Q]", "folding stability dG": 10.4}
{"variant": "MQVTWGTVTVTFSNPEEAKKYAEKVARKLGGQVELHNGQFRIK", "note": "[N7T]", "folding stability dG": 11.2}
{"variant": "MQVTWGDVTVTFSNPEEAKKYAEKVARKLGGQVELHNGQFRIK", "note": "[N7D]", "folding stability dG": 10.8}
{"variant": "MQVTWGMVTVTFSNPEEAKKYAEKVARKLGGQVELHNGQFRIK", "note": "[N7M]", "folding stability dG": 9.9}
{"variant": "MQVTWGEVTVTFSNPEEAKKYAEKVARKLGGQVELHNGQFRIK", "note": "[N7E]", "folding stability dG": 10}
{"variant": "MQVTWGYVTVTFSNPEEAKKYAEKVARKLGGQVELHNGQFRIK", "note": "[N7Y]", "folding stability dG": 10.6}
{"variant": "MQVTWGSVTVTFSNPEEAKKYAEKVARKLGGQVELHNGQFRIK", "note": "[N7S]", "folding stability dG": 11.2}
{"variant": "MQVTWGLVTVTFSNPEEAKKYAEKVARKLGGQVELHNGQFRIK", "note": "[N7L]", "folding stability dG": 9.49}
